One molecule from patent publication US20220010003A1 (Boehringer Ingelheim, published 2022) can be followed below.

Positions count from the first letter of the chain named.

The target of one assay is T1, NB1243 (L287A) (human, UniProt Q15063 22-631, limits assumed).
T1 construct: also called POSTN EMI-FAS4 L287A
T1 sequence: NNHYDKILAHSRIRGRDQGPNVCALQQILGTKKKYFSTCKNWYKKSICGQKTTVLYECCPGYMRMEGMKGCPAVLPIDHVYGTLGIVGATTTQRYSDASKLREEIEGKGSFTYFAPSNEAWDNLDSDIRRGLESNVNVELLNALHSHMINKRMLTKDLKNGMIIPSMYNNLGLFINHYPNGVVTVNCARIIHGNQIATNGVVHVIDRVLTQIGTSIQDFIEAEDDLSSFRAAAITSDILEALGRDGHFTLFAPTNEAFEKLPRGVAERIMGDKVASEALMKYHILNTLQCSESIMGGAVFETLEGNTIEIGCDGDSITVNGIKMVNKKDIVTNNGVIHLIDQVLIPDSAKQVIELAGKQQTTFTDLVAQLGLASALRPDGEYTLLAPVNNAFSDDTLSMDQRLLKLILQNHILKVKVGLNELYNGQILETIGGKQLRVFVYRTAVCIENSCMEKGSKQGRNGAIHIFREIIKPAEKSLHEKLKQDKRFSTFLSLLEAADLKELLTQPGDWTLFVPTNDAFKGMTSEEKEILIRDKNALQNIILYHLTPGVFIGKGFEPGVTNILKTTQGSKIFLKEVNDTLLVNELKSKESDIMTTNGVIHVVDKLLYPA
In words: ELISA on alanine variants of POSTN EMI-FAS4, second screen.

The next assay addresses T2, NB1202 (N276A) (human, UniProt Q15063 22-631, limits assumed).
T2 construct: also called POSTN EMI-FAS4 N276A
T2 sequence: T1 sequence with N255A, A266L
The description is as above.

Assay [1] concerns the target T3, recombinant rat periostin (rat, UniProt A0A8I6AHK0 24-838).
T3 construct: also called RatPOSTN
The assay is described as follows: BLI (Octet Red); Table 6 ties the high end of the range to rat periostin. As to the method:
(§1) NB0828's binding affinity was determined across human, mouse, rat, and cyno species. NB0828 affinities were determined using the octet red system. Briefly, anti-human Fc (AHC) biosensors were used to capture NB0828, followed by association of titrating amounts of either recombinant human, mouse, rat, or cyno periostin (100 nM→0 nM; 1:2 dilutions). Recombinant human, mouse, and rat periostin was purchased commercially from R&D systems, whereas cyno periostin was made internally.
In general terms: In BLI a coated tip is dipped into the sample, and binding shifts an interference pattern.

Assay [2] deals with T4, recombinant mouse periostin (mouse, UniProt Q62009-2 24-811, limits assumed).
T4 construct: also called MoPOSTN
T4 sequence (looked up): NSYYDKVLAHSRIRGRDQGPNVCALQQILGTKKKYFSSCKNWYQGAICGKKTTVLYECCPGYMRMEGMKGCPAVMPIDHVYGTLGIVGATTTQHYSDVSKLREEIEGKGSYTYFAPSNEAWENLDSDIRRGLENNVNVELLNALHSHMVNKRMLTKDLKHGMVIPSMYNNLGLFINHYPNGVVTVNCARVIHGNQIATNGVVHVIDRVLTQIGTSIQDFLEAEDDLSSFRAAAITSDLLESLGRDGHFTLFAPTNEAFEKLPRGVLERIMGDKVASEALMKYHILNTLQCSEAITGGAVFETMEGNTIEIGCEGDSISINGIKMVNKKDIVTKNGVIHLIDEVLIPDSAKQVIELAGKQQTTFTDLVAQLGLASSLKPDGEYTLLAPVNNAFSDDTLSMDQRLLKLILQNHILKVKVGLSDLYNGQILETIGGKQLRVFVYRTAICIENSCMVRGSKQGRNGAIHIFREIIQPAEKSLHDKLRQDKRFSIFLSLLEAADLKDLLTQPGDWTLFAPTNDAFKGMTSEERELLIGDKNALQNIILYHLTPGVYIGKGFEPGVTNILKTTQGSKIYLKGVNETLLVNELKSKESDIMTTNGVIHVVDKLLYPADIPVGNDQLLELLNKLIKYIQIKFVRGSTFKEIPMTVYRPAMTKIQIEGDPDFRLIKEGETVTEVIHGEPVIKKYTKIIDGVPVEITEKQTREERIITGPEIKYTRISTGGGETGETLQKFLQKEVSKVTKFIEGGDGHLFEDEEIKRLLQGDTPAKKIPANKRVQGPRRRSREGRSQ
The assay is described as follows: BLI (Octet Red); Table 6 ties the low end of the range to mouse periostin. As to the method:
as §1

B1: NB0828 (antibody, V domains shown)
VH: QVQLVQSGAEVKKPGASVKVSCKASGYTFTSYGISWVRQAPGQGLEWMGWISAYNGNTNYAQKLQGRVTMTTDTSTSTAYMELRSLRSDDTAVYYCARDMLVVPFDYWGQGTLVTVSS
VL: QSVLTQSSSASGTPGQTVTVSCSGSSSDIGSNRVNWYQQLPGTAPKLLIYSNDQRPSGVPDRFSGSKSGTSASLAISGLQSADEADYYCAAWDDSLSTYVFGSGTKVTVL
In general, Kd refers to the constant that tells how readily two partners part at equilibrium. As for B1, the “loss from the max signal” value with NB1243 (L287A) and with NB1202 (N276A) was greater than 50% each time. The Kd in assay [1] came to 0.5 nM; in assay [2], 0.1 nM.
